# Source: patent US20200239541A1 (XYPHOS BIOSCIENCES, published 2020)
# Numbering of substitutions follows the chain as printed.
# B1: rituximab-ULBP2.R MicAbody (bispecific antibody, human IgG1, kappa)
# heavy: not shown
# light: QIVLSQSPAILSASPGEKVTMTCRASSSVSYIHWFQQKPGSSPKPWIYATSNLASGVPVRFSGSGSGTSYSLTISRVEAEDAATYYCQQWTSNPPTFGGGTKLEIKTVAAPSVFIFPPSDEQLKSGTASVVCLLNNFYPREAKVQWKVDNALQSGNSQESVTEQDSKDSTYSLSSTLTLSKADYEKHKVYACEVTHQGLSSPVTKSFNRGECAPTSSSGGGGSEPHSLSYDITVIPKFRPGPRWCAVQGQVDEKTFLHYDCGNKTVTPVSPLGKKLNVTTAWKAQNPVLREVVDILTEQLWDIQLENYTPKEPLTLQARMSCEQKAEGHSSGSWQFSFDGQIFLLFDSEKRMWTTVHPGARKMKEKWENDKVVATLLWGWSMGDCIGWLEDFLMGMDSTLEPS
# notes: also called rituximab-MicAbody with ULBP2 variant R
# B2: ULBP2.wt rituximab-MicAbody (bispecific antibody, human IgG1, kappa)
# heavy: not shown
# light: QIVLSQSPAILSASPGEKVTMTCRASSSVSYIHWFQQKPGSSPKPWIYATSNLASGVPVRFSGSGSGTSYSLTISRVEAEDAATYYCQQWTSNPPTFGGGTKLEIKRTVAAPSVFIFPPSDEQLKSGTASVVCLLNNFYPREAKVQWKVDNALQSGNSQESVTEQDSKDSTYSLSSTLTLSKADYEKHKVYACEVTHQGLSSPVTKSFNRGECAPTSSSGGGGSEPHSLSYDITVIPKFRPGPRWCAVQGQVDEKTFLHYDCGNKTVTPVSPLGKKLNVTTAWKAQNPVLREVVDILTEQLRDIQLENYTPKEPLTLQARMSCEQKAEGHSSGSWQFSFDGQIFLLFDSEKRMWTTVHPGARKMKEKWENDKVVAMSFHYFSMGDCIGWLEDFLMGMDSTLEPS
# notes: also called ULBP2 MicAbody
# B3: rituximab-ULBP2.S3 MicAbody (bispecific antibody, human IgG1, kappa)
# heavy: not shown
# light: B2 light with R302W, M376T, S377K, F378L, H379Y, Y380L, F381W
# notes: also called ULBP2.S3 as a MicAbody
# Legend:
# [1] = biological target: T1, Fc-NKG2D.Y152A (human); assay: ELISA of rituximab-MicAbodies
# T1 construct: also called eNKG2D A|Y; Fc-NKG2D.YA
# [2] = biological target: T2, Fc-eNKG2D4 (Y152V) (human); assay: ELISA, Fc-NKG2D coated, MicAbody titrated from 300 nM
# T2 construct: also called eNKG2D4 V|Y
# Experimental: (§1) The binding affinities of α1-α2 variants to the extracellular domains of natural (wild-type) NKG2D and non-natural eNKG2D proteins were analyzed using a plate-based ELISA method. Each of the SEC fractionated natural Fc-NKG2D and non-natural Fc-eNKG2D fusions were coated overnight at 4° C. onto separate wells of Nunc Maxisorp 96 well plates (Thermo Fisher Scientific, Waltham, Mass.) using a coating concentration of 1 μg/mL in phosphate-buffered saline (PBS). The plates were washed three times in PBS/0.05% Tween-20 (PBS-T) at 20-22° C., and blocked with 0.5% bovine serum albumin in PBS (PBS-B) for 2 hours at 20-22° C. MicAbodies were titrated against the plate-bound natural or non-natural Fc-NKG2D fusions for 60 minutes at 20-22° C. in PBS/0.5% bovine serum albumin (BSA)/0.05% Tween-20 (PBS-BT), washed 3 times with PBS-T at 20-22° C., and the bound bispecific proteins detected using an HRP-conjugated anti-human kappa in PBS-BT (Abcam, Cambridge Mass.) and developed with 1-Step™ Ultra TMB ELISA Substrate Solution (Thermo Fisher Scientific, Waltham, Mass.).
# [3] = biological target: T3, Fc-eNKG2D3 (Y152T) (human); assay: as above
# T3 construct: also called eNKG2D3 T|Y
# Experimental: as §1
# [4] = biological target: T4, Fc-eNKG2D2 (Y152S) (human); assay: as above
# T4 construct: also called eNKG2D2 S|Y; not shown: human IgG1 Fc (without Fab domains)
# Experimental: as §1
# [5] = biological target: T5, Fc-eNKG2D14 (Y152L) (human); assay: as above
# T5 construct: also called eNKG2D14 L|Y
# Experimental: as §1
# [6] = biological target: T6, Fc-NKG2D.wt (human); assay: as above
# T6 construct: also called NKG2D.wt Y|Y; natural Fc-NKG2D
# Experimental: as §1
# [7] = biological target: T6, Fc-NKG2D.wt; assay: ELISA (called Kd in the text)
# Experimental: as §1
# [8] = biological target: T7, Fc-eNKG2D6 (Y152L/Y199F) (human); assay: ELISA, Fc-eNKG2D coated, MicAbody titrated from 300 nM
# T7 construct: also called eNKG2D6 L|F
# T7 sequence (chain, as listed by the source Y152L Y199F Y152L Y199F limits assumed): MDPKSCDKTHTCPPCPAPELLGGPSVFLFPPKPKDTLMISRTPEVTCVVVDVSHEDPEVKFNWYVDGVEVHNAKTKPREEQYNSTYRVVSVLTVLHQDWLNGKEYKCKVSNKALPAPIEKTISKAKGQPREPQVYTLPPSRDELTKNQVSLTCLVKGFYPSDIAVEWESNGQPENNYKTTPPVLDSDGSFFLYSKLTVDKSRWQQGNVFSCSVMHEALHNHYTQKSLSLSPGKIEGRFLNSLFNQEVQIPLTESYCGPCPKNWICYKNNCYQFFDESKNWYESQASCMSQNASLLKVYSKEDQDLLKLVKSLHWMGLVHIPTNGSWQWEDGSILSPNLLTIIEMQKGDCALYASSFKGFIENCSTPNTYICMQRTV
# Experimental: as §1
# [9] = biological target: T8, Fc-eNKG2D5 (Y152A/Y199F) (human); assay: as above
# T8 construct: also called eNKG2D5 A|F; Fc-NKG2D.AF
# T8 sequence (chain, as listed by the source Y152A Y199F Y152A Y199F limits assumed): as the sequence (chain, as listed by the source Y152L Y199F Y152L Y199F limits assumed) above, with L312A counted along it
# Experimental: as §1
# [10] = biological target: T9, Fc-eNKG2D12 (Y152D/Y199D) (human); assay: as above
# T9 construct: also called eNKG2D12 D|D
# T9 sequence (chain, as listed by the source Y152D Y199D Y152D Y199D limits assumed): as the sequence (chain, as listed by the source Y152L Y199F Y152L Y199F limits assumed) above, with L312D, F359D counted along it
# Experimental: as §1
# [11] = biological target: T10, Fc-eNKG2D9 (Y152V/Y199F) (human); assay: as above
# T10 construct: also called eNKG2D9 V|F
# T10 sequence (chain, as listed by the source Y152V Y199F Y152V Y199F limits assumed): as the sequence (chain, as listed by the source Y152L Y199F Y152L Y199F limits assumed) above, with L312V counted along it
# Experimental: as §1
# [12] = biological target: T11, Fc-eNKG2D7 (Y152S/Y199F) (human); assay: as above
# T11 construct: also called eNKG2D7 S|F
# T11 sequence (chain, as listed by the source Y152S Y199F Y152S Y199F limits assumed): as the sequence (chain, as listed by the source Y152L Y199F Y152L Y199F limits assumed) above, with L312S counted along it
# Experimental: as §1
# [13] = biological target: T12, Fc-eNKG2D13 (Y152E/Y199E) (human); assay: as above
# T12 construct: also called eNKG2D13 E|E
# T12 sequence (chain, as listed by the source Y152E Y199E Y152E Y199E limits assumed): as the sequence (chain, as listed by the source Y152L Y199F Y152L Y199F limits assumed) above, with L312E, F359E counted along it
# Experimental: as §1
# [14] = biological target: T13, Fc-eNKG2D8 (Y152T/Y199F) (human); assay: as above
# T13 construct: also called eNKG2D8 T|F
# T13 sequence (chain, as listed by the source Y152T Y199F Y152T Y199F limits assumed): as the sequence (chain, as listed by the source Y152L Y199F Y152L Y199F limits assumed) above, with L312T counted along it
# Experimental: as §1
# [15] = biological target: T8, Fc-eNKG2D5 (Y152A/Y199F); assay: ELISA of rituximab-MicAbodies
# [16] = biological target: T6, Fc-NKG2D.wt; assay: ELISA of rituximab-MicAbodies
# [17] = biological target: T1, Fc-NKG2D.Y152A; assay: ELISA and Octet, bispecific antibody fused format
binder,measurement,setting,value
B1,binding result,[1],no binding
B2,EC50,[2],35.8 nM
same,EC50,[3],31.1 nM
same,EC50,[4],34.8 nM
same,EC50,[5],87.6 nM
same,EC50,[6],1.41 nM
same,EC50,[7],1.4 nM
same,binding result,[8],no binding (tested: 300 nM)
same,binding result,[9],no binding (tested: 300 nM)
same,binding result,[10],no binding (tested: 300 nM)
same,binding result,[11],no binding (tested: 300 nM)
same,binding result,[12],no binding (tested: 300 nM)
same,binding result,[13],no binding (tested: 300 nM)
same,binding result,[14],no binding (tested: 300 nM)
B3,binding result,[15],no binding
same,binding result,[16],no binding
same,binding result,[17],binds
